target: Grb2 SH2 (UniProt P62993); assay: SH2 binding enrichment of the phosphorylated peptide, bacterial display (enrichment ratio); higher = better substrate or ligand; peptides without Tyr show the background
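Throughout, for SH2 binding enrichment of the phosphorylated peptide, bacterial display: peptide library displayed on the E. coli surface as eCPX fusions, selected cells deep-sequenced, score is each peptide's frequency after selection divided by its frequency in the input.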
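Throughout, for phosphorylation enrichment, bacterial display: 11-residue human phosphosite peptides and single-mutation variants displayed on the E. coli surface, counted by deep sequencing, each peptide's frequency after selection divided by its frequency in the unselected input library; frequency after pTyr selection over input frequency; kinase dosed for 20-30% of maximal phosphorylation in three min.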

Grb2 SH2, sequence (P62993 whole entry, looked up, the tested form may be a part): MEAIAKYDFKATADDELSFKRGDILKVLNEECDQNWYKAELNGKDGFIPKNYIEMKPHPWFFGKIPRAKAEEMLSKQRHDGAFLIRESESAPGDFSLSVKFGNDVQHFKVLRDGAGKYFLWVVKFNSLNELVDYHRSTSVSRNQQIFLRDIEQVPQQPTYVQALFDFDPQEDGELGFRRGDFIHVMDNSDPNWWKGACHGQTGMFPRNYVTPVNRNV

Q: Which SH2 binding enrichment does the source give for AFGTVYKGLWI [EGFR_Y727] here?
A: The SH2 binding enrichment was 0.857.

Q: With EYGRRYGFSRQ [CCDC93_Y209] as the sequence, how does the SH2 binding enrichment read?
A: Its SH2 binding enrichment is 0.676.

Q: How did the SH2 binding enrichment turn out when RLASVYTKRCS [CPT2_Y508_P504L] was run?
A: Its SH2 binding enrichment is 0.868.

Q: How did the SH2 binding enrichment turn out when TLQVMYGCDVG [HLA-B_Y123_S121V] was run?
A: Its SH2 binding enrichment is 0.941.

Q: PVEAAYQKVVA [HBB_Y131_Q128E] was tested. Which SH2 binding enrichment did it give?
A: Its SH2 binding enrichment is 0.725.

Q: With LYSINYLHFGE [KDM4C_Y201] as the sequence, how does the SH2 binding enrichment read?
A: The SH2 binding enrichment was 1.54.

Q: For SSVKLYRVYCD [FGB_Y266_P265L], which SH2 binding enrichment is on record?
A: The SH2 binding enrichment was 0.893.

Q: VTVLDYDKTGK [SYT1_Y365_I368T] was tested. Which SH2 binding enrichment did it give?
A: Its SH2 binding enrichment is 0.737.

Q: Which SH2 binding enrichment does the source give for HFGCVYHGTLL [MET_Y1093] here?
A: Its SH2 binding enrichment is 0.98.

Q: How did the SH2 binding enrichment turn out when REGAKYVSHGT [ASS1_Y113_A118T] was run?
A: The SH2 binding enrichment was 0.808.

Q: With SLLVVYPWTQR [HBB_Y36_R31S] as the sequence, how does the SH2 binding enrichment read?
A: Its SH2 binding enrichment is 1.88.

Q: WQQQSYLDSEI [CTNNB1_Y30_G34E] was tested. Which SH2 binding enrichment did it give?
A: Its SH2 binding enrichment is 0.992.

Q: How did the SH2 binding enrichment turn out when PVKSEYSSIKL [NPC2_Y119_P120S] was run?
A: The SH2 binding enrichment was 0.665.

Q: QKKPCYEIRWK [PDGFRB_Y562_R561C] was tested. Which SH2 binding enrichment did it give?
A: The SH2 binding enrichment was 1.55.

Q: Which SH2 binding enrichment does the source give for VEFAKYGSLQG [RET_Y809_R813Q_YF] here?
A: The SH2 binding enrichment was 0.745.

Q: SIKDKHVTALY [KCNH2_Y611_Y611H] was tested. Which SH2 binding enrichment did it give?
A: Its SH2 binding enrichment is 0.899.

Q: For KNNDGYIDYAE [MCFD2_Y135], which SH2 binding enrichment is on record?
A: Its SH2 binding enrichment is 0.945.

Q: With EEGENYQKGEQ [CHGB_Y173_R178Q] as the sequence, how does the SH2 binding enrichment read?
A: The SH2 binding enrichment was 0.876.

Q: How did the SH2 binding enrichment turn out when EDSEYYRAFEE [CASQ2_Y179_K180R] was run?
A: Its SH2 binding enrichment is 0.939.

Q: Which SH2 binding enrichment does the source give for SYDLDYDSVQP [MYC_Y16_N11S] here?
A: The SH2 binding enrichment was 0.804.

Q: SNKLFYQLEQE [PDPR_Y110_YF] was tested. Which SH2 binding enrichment did it give?
A: Its SH2 binding enrichment is 0.869.

Q: With GCAGKYIAMVM [CYP19A1_Y441] as the sequence, how does the SH2 binding enrichment read?
A: Its SH2 binding enrichment is 0.875.

Q: FEEDPYLVVNP [MCM6_Y810_YF] was tested. Which SH2 binding enrichment did it give?
A: Its SH2 binding enrichment is 0.769.

Q: DLAHKYHGGGG [HBB_Y146_A141D] was tested. Which SH2 binding enrichment did it give?
A: Its SH2 binding enrichment is 0.722.

Q: Which SH2 binding enrichment does the source give for AIIGIYILRDN [CDH23_Y2949_D2954N] here?
A: Its SH2 binding enrichment is 1.44.

Q: With NTDETYCIDNE [TUBB2B_Y200] as the sequence, how does the SH2 binding enrichment read?
A: Its SH2 binding enrichment is 0.952.

Q: For LFSINYLHFGE [KDM4C_Y201_YF], which SH2 binding enrichment is on record?
A: Its SH2 binding enrichment is 1.38.

Q: With QGIPRYHSQSP [FOXF1_Y331] as the sequence, how does the SH2 binding enrichment read?
A: The SH2 binding enrichment was 0.733.

Q: For RDLEQYVNNVN [PCDH19_Y1097], which SH2 binding enrichment is on record?
A: The SH2 binding enrichment was 1.8.

Q: With KEEEDYKEENN [BMS1_Y651] as the sequence, how does the SH2 binding enrichment read?
A: Its SH2 binding enrichment is 0.769.

Q: Which SH2 binding enrichment does the source give for SISLKYEGRVF [ABL1_Y167_R166K_YF] here?
A: The SH2 binding enrichment was 0.86.

Q: With TIQMMYGCDVG [HLA-A_Y123_I121M] as the sequence, how does the SH2 binding enrichment read?
A: The SH2 binding enrichment was 0.845.

Q: How did the SH2 binding enrichment turn out when KIDAKYKKKIE [WDR19_Y1230] was run?
A: The SH2 binding enrichment was 0.601.

target: Hck (UniProt P08631); assay: phosphorylation enrichment, bacterial display (enrichment ratio); higher = better substrate or ligand; peptides without Tyr show the background
Sequence (P08631 whole entry, looked up): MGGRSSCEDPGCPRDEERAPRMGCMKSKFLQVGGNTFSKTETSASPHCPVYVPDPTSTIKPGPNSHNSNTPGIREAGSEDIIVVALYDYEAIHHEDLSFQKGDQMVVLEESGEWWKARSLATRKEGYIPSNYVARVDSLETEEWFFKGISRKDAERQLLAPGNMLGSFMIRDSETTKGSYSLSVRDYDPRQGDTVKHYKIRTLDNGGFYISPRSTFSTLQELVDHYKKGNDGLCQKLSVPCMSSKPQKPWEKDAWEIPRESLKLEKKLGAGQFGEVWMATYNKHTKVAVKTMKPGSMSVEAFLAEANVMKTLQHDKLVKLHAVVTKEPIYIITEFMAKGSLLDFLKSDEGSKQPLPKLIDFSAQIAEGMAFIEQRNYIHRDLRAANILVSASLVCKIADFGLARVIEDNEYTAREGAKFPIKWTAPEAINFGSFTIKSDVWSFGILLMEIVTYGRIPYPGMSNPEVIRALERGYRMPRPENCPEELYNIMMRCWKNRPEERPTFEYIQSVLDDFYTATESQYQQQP

Q: For AFGTVYKGLWI [EGFR_Y727], which phosphorylation enrichment is on record?
A: The phosphorylation enrichment was 0.525.

Q: Which phosphorylation enrichment does the source give for EYGRRYGFSRQ [CCDC93_Y209] here?
A: The phosphorylation enrichment was 0.438.

Q: For RLASVYTKRCS [CPT2_Y508_P504L], which phosphorylation enrichment is on record?
A: Its phosphorylation enrichment is 0.578.

Q: Which phosphorylation enrichment does the source give for TLQVMYGCDVG [HLA-B_Y123_S121V] here?
A: The phosphorylation enrichment was 0.593.

Q: With PVEAAYQKVVA [HBB_Y131_Q128E] as the sequence, how does the phosphorylation enrichment read?
A: The phosphorylation enrichment was 0.612.

Q: Which phosphorylation enrichment does the source give for LYSINYLHFGE [KDM4C_Y201] here?
A: The phosphorylation enrichment was 3.5.

Q: Which phosphorylation enrichment does the source give for SSVKLYRVYCD [FGB_Y266_P265L] here?
A: Its phosphorylation enrichment is 0.603.

Q: VTVLDYDKTGK [SYT1_Y365_I368T] was tested. Which phosphorylation enrichment did it give?
A: The phosphorylation enrichment was 0.426.

Q: With HFGCVYHGTLL [MET_Y1093] as the sequence, how does the phosphorylation enrichment read?
A: The phosphorylation enrichment was 0.9.

Q: For REGAKYVSHGT [ASS1_Y113_A118T], which phosphorylation enrichment is on record?
A: The phosphorylation enrichment was 0.37.

Q: How did the phosphorylation enrichment turn out when SLLVVYPWTQR [HBB_Y36_R31S] was run?
A: The phosphorylation enrichment was 0.395.

Q: WQQQSYLDSEI [CTNNB1_Y30_G34E] was tested. Which phosphorylation enrichment did it give?
A: Its phosphorylation enrichment is 0.444.

Q: PVKSEYSSIKL [NPC2_Y119_P120S] was tested. Which phosphorylation enrichment did it give?
A: Its phosphorylation enrichment is 1.11.

Q: Which phosphorylation enrichment does the source give for QKKPCYEIRWK [PDGFRB_Y562_R561C] here?
A: The phosphorylation enrichment was 1.02.

Q: For VEFAKYGSLQG [RET_Y809_R813Q_YF], which phosphorylation enrichment is on record?
A: Its phosphorylation enrichment is 0.741.

Q: How did the phosphorylation enrichment turn out when SIKDKHVTALY [KCNH2_Y611_Y611H] was run?
A: Its phosphorylation enrichment is 0.397.

Q: How did the phosphorylation enrichment turn out when KNNDGYIDYAE [MCFD2_Y135] was run?
A: The phosphorylation enrichment was 0.625.

Q: For EEGENYQKGEQ [CHGB_Y173_R178Q], which phosphorylation enrichment is on record?
A: Its phosphorylation enrichment is 0.519.

Q: For EDSEYYRAFEE [CASQ2_Y179_K180R], which phosphorylation enrichment is on record?
A: The phosphorylation enrichment was 0.675.

Q: For SYDLDYDSVQP [MYC_Y16_N11S], which phosphorylation enrichment is on record?
A: Its phosphorylation enrichment is 0.762.

Q: With SNKLFYQLEQE [PDPR_Y110_YF] as the sequence, how does the phosphorylation enrichment read?
A: Its phosphorylation enrichment is 0.641.

Q: GCAGKYIAMVM [CYP19A1_Y441] was tested. Which phosphorylation enrichment did it give?
A: Its phosphorylation enrichment is 0.439.

Q: For FEEDPYLVVNP [MCM6_Y810_YF], which phosphorylation enrichment is on record?
A: The phosphorylation enrichment was 1.04.

Q: DLAHKYHGGGG [HBB_Y146_A141D] was tested. Which phosphorylation enrichment did it give?
A: Its phosphorylation enrichment is 0.348.

Q: How did the phosphorylation enrichment turn out when AIIGIYILRDN [CDH23_Y2949_D2954N] was run?
A: Its phosphorylation enrichment is 1.6.

Q: NTDETYCIDNE [TUBB2B_Y200] was tested. Which phosphorylation enrichment did it give?
A: The phosphorylation enrichment was 0.728.

Q: LFSINYLHFGE [KDM4C_Y201_YF] was tested. Which phosphorylation enrichment did it give?
A: Its phosphorylation enrichment is 0.65.

Q: With QGIPRYHSQSP [FOXF1_Y331] as the sequence, how does the phosphorylation enrichment read?
A: The phosphorylation enrichment was 1.02.

Q: RDLEQYVNNVN [PCDH19_Y1097] was tested. Which phosphorylation enrichment did it give?
A: Its phosphorylation enrichment is 0.377.

Q: How did the phosphorylation enrichment turn out when KEEEDYKEENN [BMS1_Y651] was run?
A: The phosphorylation enrichment was 0.516.

Q: How did the phosphorylation enrichment turn out when SISLKYEGRVF [ABL1_Y167_R166K_YF] was run?
A: Its phosphorylation enrichment is 0.553.

Q: How did the phosphorylation enrichment turn out when TIQMMYGCDVG [HLA-A_Y123_I121M] was run?
A: The phosphorylation enrichment was 0.501.

Q: For KIDAKYKKKIE [WDR19_Y1230], which phosphorylation enrichment is on record?
A: Its phosphorylation enrichment is 0.408.

From the supplement of paper PMC10065799, “High-throughput profiling of sequence recognition by tyrosine kinases and SH2 domains using bacterial peptide display” (eLife, 2023)
